For assay [1], the target named is IL-1R-I on cells (TF-1 cells, NHDF cells, human whole blood) (human) (UniProt P14778). Description: cell-based or functional assay.
Assay [2] concerns the target human IL-1R-I on Normal Human Dermal Fibroblasts (NHDF) cells (human) (UniProt P14778). Briefly: cell-based or functional assay.

IL-1R-I on cells (TF-1 cells, NHDF cells, human whole blood) (human), sequence (P14778 18-569): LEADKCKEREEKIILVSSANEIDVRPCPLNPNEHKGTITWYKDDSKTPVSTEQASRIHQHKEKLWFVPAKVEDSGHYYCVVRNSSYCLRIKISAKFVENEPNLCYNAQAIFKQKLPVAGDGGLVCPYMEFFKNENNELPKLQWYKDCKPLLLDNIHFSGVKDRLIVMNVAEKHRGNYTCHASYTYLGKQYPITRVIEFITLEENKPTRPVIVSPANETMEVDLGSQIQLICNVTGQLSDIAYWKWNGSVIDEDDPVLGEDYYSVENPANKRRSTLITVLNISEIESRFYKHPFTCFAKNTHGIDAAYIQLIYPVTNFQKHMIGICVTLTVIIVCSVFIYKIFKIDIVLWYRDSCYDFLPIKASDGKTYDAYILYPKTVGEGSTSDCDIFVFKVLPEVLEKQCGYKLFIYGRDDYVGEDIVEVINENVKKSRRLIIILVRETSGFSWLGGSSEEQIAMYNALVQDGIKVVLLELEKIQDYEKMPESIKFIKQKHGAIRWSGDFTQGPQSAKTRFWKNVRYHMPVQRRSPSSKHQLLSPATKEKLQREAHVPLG
human IL-1R-I on Normal Human Dermal Fibroblasts (NHDF) cells (human), sequence (P14778 18-569): as above

“anakinra (Kineret, Sobi) (from UniProt P18510 26-177) (ligand)”: in assay [1], the IC50, inhibition of IL-1B induced proliferation of TF-1 cells amounted to 0.05 nM; the median IC50, IL-1B induced IL-6 release in human whole blood is 0.31 nM; the median IC50, IL-1B induced IL-6 release in human whole blood (legend of FIG. 3) amounted to 0.3 nM.

The substance “anakinra (from UniProt P18510 26-177) (ligand)” had an IC50 (pM), inhibition of IL-1B induced IL-6 release in NHDF cells in assay [2] of 70 pM.
